Target: C3b (human) (UniProt P01024)
Assay: SPR; Biacore T200; about 2488 RU of C3b immobilised by amine coupling on a CM5 chip; CFHR3 injected in duplicate at 10-300 ug/ml; 25 °C, 30 ul/min; 10 mM Hepes-buffered saline, 3 mM ENTA (so in the source), 0.05% surfactant p20; wild type: KD from rate constants, mutant: steady-state affinity fit

Row | Kd | koff | kon | Substance
1 | 18 µM | – | – | mutant recombinant CFHR3 Arg142Cys (rs61737525, c.424 C > T) (from UniProt Q02985 19-330) (natural protein)
2 | 0.15 µM | 0.00128 s⁻¹ | 8350 M⁻¹ s⁻¹ | wild-type recombinant CFHR3 (complement factor H-related protein 3) (from UniProt Q02985 19-330) (natural protein)

From article PMC5519609
